T1: Bak (UniProt Q16611 1-211, limits assumed)
T1 construct: In vitro translated, [35S]Met-labelled
T1 sequence (looked up): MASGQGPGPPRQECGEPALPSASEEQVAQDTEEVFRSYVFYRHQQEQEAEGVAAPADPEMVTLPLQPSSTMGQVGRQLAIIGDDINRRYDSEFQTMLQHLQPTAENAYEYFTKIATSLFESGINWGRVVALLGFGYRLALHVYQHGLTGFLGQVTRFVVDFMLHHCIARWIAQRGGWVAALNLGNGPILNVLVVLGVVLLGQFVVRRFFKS

B1: HA-tagged Fortilin deletion mutant, amino acids 46-172 (other, not shown: small tags and cut ends)
chain: SLIGGNASAEGPEGEGTESTVITGVDIVMNHHLQETSFTKEAYKKYIKDYMKSIKGKLEEQRPERVKPFMTGAAEQIKHILANFKNYQFFIGENMNPDGMVALLDYREDGVTPYMIFFKDGLEMEKC
notes: Any added start methionine is not described
B2: HA-tagged Fortilin deletion mutant, amino acids 5-172 (other, not shown: small tags and cut ends)
chain: RDLISHDEMFSDIYKIREIADGLCLEVEGKMVSRTEGNIDDSLIGGNASAEGPEGEGTESTVITGVDIVMNHHLQETSFTKEAYKKYIKDYMKSIKGKLEEQRPERVKPFMTGAAEQIKHILANFKNYQFFIGENMNPDGMVALLDYREDGVTPYMIFFKDGLEMEKC
notes: as for B1
B3: influenza hemagglutinin-tagged Fortilin (Fortilin-HA), full-length, amino acids 1-172 (other, not shown: small tags and cut ends)
chain: MIIYRDLISHDEMFSDIYKIREIADGLCLEVEGKMVSRTEGNIDDSLIGGNASAEGPEGEGTESTVITGVDIVMNHHLQETSFTKEAYKKYIKDYMKSIKGKLEEQRPERVKPFMTGAAEQIKHILANFKNYQFFIGENMNPDGMVALLDYREDGVTPYMIFFKDGLEMEKC
notes: also called wild type Fortilin; wild-type fortilin
B4: HA-tagged Fortilin deletion mutant, amino acids 23-172 (other, not shown: small tags and cut ends)
chain: IADGLCLEVEGKMVSRTEGNIDDSLIGGNASAEGPEGEGTESTVITGVDIVMNHHLQETSFTKEAYKKYIKDYMKSIKGKLEEQRPERVKPFMTGAAEQIKHILANFKNYQFFIGENMNPDGMVALLDYREDGVTPYMIFFKDGLEMEKC
notes: as for B1

Key:
[1] = target: T2, MCL1 (Myeloid Cell Leukemia 1) (UniProt Q07820 1-350, limits assumed); assay: in vitro interaction assay with Fortilin deletion mutants
From the text: In vitro pull-down assay. Radiolabeled proteins for use in an in vitro binding assay were generated by a TNT Quick Coupled Transcription/Translation System (Promega, Madison, Wis.) according to the manufacturer's instructions, using [³⁵S]methionine (Amersham-Pharmacia, Piscataway, N.J.) as labeling agent. DNA templates were either circular plasmids or gel-purified PCR products containing a T7 RNA polymerase promoter. The in vitro translated, influenza hemagglutinin-tagged Fortilin (Fortilin-HA) or its mutants and another in vitro translated protein namely, MCL1, Bcl-xL, Bak, Bax or PCNA, were added to Buffer A (50 mM HEPES, pH 7.5, 70 mM KCl, 0.5 mM ATP, 5 mM MgSO₄, 1 mM DTT, 0.001% NP-40, 50 μM MG132, 2 μg/mL BSA, 2 μg/mL aporotinin, 0.5 mM PMSF and protease inhibitor cocktail [Sigma]), and allowed to form complexes at 4° C. for 90 minutes. Fortilin-HA or its mutants were then pulled down with rat anti-HA antibody (Clone 3F10; Roche Molecular Biochemicals, Indianapolis, Ind.) and sheep anti-rat polyclonal antibody conjugated to Dynabeads™ (M480; Dynal USA, Lake Success, N.Y.). Immune complexes were then washed 5 times with Buffer A and once with Buffer B (Buffer A supplemented with 0.01% NP-40). […]

[2] = target: T2, MCL1 (Myeloid Cell Leukemia 1); assay: in vitro pull-down with anti-HA antibody and Dynabeads, [35S]-labelled proteins
From the text: (§1) In vitro pull-down assay. Radiolabeled proteins for use in an in vitro binding assay were generated by a TNT Quick Coupled Transcription/Translation System (Promega, Madison, Wis.) according to the manufacturer's instructions, using [³⁵S]methionine (Amersham-Pharmacia, Piscataway, N.J.) as labeling agent. DNA templates were either circular plasmids or gel-purified PCR products containing a T7 RNA polymerase promoter. The in vitro translated, influenza hemagglutinin-tagged Fortilin (Fortilin-HA) or its mutants and another in vitro translated protein namely, MCL1, Bcl-xL, Bak, Bax or PCNA, were added to Buffer A (50 mM HEPES, pH 7.5, 70 mM KCl, 0.5 mM ATP, 5 mM MgSO₄, 1 mM DTT, 0.001% NP-40, 50 μM MG132, 2 μg/mL BSA, 2 μg/mL aporotinin, 0.5 mM PMSF and protease inhibitor cocktail [Sigma]), and allowed to form complexes at 4° C. for 90 minutes. Fortilin-HA or its mutants were then pulled down with rat anti-HA antibody (Clone 3F10; Roche Molecular Biochemicals, Indianapolis, Ind.) and sheep anti-rat polyclonal antibody conjugated to Dynabeads™ (M480; Dynal USA, Lake Success, N.Y.). Immune complexes were then washed 5 times with Buffer A and once with Buffer B (Buffer A supplemented with 0.01% NP-40). Finally, precipitated proteins were eluted into SDS gel loading buffer (50 mM Tris-Cl, pH 6.8, 100 mM DTT, 2% SDS, 0.1% bromophenol blue, and 10% glycerol), boiled for 5 minutes, subjected to 12% SDS-polyacrylamide gel electrophoresis (SDS-PAGE) and visualized by fluorography and imaging with a phosphoimager system (Bio-Rad, Hercules, Calif.).

Bax = target: T3, Bax (UniProt Q07812 1-192, limits assumed); assay: as above
T3 construct: In vitro translated, [35S]Met-labelled
From the text: as §1

PCNA = target: T4, PCNA (UniProt P12004 1-261, limits assumed); assay: as above
T4 construct: In vitro translated, [35S]Met-labelled
From the text: as §1

Bak = target: T1, Bak; assay: as above
From the text: as §1

T2 sequence (Q07820 whole entry): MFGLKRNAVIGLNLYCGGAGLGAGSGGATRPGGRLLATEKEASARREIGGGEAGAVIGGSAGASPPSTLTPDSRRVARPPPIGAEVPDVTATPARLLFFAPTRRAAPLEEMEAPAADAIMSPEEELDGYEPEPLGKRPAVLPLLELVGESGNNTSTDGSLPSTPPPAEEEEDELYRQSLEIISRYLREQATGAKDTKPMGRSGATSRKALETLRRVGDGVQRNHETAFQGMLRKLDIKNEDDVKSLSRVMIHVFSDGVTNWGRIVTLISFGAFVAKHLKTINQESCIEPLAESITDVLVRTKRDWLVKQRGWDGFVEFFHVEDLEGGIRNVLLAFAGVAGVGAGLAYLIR
T3 sequence (Q07812 whole entry): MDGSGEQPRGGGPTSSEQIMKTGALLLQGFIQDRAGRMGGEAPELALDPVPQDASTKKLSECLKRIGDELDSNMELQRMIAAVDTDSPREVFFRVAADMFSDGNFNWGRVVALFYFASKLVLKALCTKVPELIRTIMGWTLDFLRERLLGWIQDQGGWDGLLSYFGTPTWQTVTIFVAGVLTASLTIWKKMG
T4 sequence (P12004 whole entry): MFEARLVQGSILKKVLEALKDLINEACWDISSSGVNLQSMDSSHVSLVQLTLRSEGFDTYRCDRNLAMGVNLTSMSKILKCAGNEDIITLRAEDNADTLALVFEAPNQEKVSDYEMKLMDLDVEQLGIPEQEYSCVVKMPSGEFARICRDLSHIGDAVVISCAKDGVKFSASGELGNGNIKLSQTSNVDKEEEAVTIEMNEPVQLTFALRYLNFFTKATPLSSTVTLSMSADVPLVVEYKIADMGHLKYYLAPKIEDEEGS

Binder | binding result [1] | binding result [2] | binding result (Bax) | binding result (PCNA) | binding result (Bak)
B1 | no binding | – | – | – | –
B2 | – | binds | – | – | –
B3 | – | binds | no binding | no binding | no binding
B4 | no binding | – | – | – | –
